Measured values: patent US20180142032A1 (Sanofi, published 2018)
Substitutions are numbered along the chain they refer to.

B1: MAb1 (antibody, mouse IgG2a, kappa)
heavy: QVQLQQSGAELVKPGASVKMSCKASGYIFTNYNIHWVKKSPGQGLEWIGAIYPGNGDAPYSQKFKDKATLTADKSSSTTYMQLSRLTSEDSAVYYCVRANWDVAFAYWGQGTLVSVSAAKTTAPSVYPLAPVCGDTTGSSVTLGCLVKGYFPEPVTLTWNSGSLSSGVHTFPAVLQSDLYTLSSSVTVTSSTWPSQSITCNVAHPASSTKVDKKIEPRGPTIKPCPPCKCPAPNLLGGPSVFIFPPKIKDVLMISLSPIVTCVVVDVSEDDPDVQISWFVNNVEVHTAQTQTHREDYNSTLRVVSALPIQHQDWMSGKEFKCKVNNKDLPAPIERTISKPKGSVRAPQVYVLPPPEEEMTKKQVTLTCMVTDFMPEDIYVEWTNNGKTELNYKNTEPVLDSDGSYFMYSKLRVEKKNWVERNSYSCSVVHEGLHNHHTTKSFSRTPGK
light: DIQMTQSPPSLSASLGGKVTITCKASQDIDRYMAWYQDKPGKGPRLLIHDTSTLQPGIPSRFSGSGSGRDYSFSISNLEPEDIATYYCLQYDNLWTFGGGTKLEIKRADAAPTVSIFPPSSEQLTSGGASVVCFLNNFYPKDINVKWKIDGSERQNGVLNSWTDQDSKDSTYSMSSTLTLTKDEYERHNSYTCEATHKTSTSPIVKSFNRNEC
notes: murine monoclonal IgG, kappa, from hybridoma; also called murine MAb1
B2: huMAb1_1 (antibody, human IgG1, kappa)
heavy: not shown
light: DIQMTQSPSSLSASVGDRVTITCKASQDIDRYMAWYQDKPGKAPRLLIHDTSTLQSGVPSRFSGSGSGRDYTLTISNLEPEDFATYYCLQYDNLWTFGGGTKVEIKRTVAAPSVFIFPPSDEQLKSGTASVVCLLNNFYPREAKVQWKVDNALQSGNSQESVTEQDSKDSTYSLSSTLTLSKADYEKHKVYACEVTHQGLSSPVTKSFNRGEC
notes: humanized, VH1-huIgG1 and VL1-huCk

Key:
[1] = molecular target: T1, human LAMP1 at the cell surface (human, UniProt P11279 29-417); experiment: flow cytometry, transiently transfected HEK293 cells
T1 construct: native on tumour cells (PDX, Colo205, SW480, LS174T) or from the cloned CDS NM_005561.3 in HEK293 and HCT116; signal peptide 1-28 left out; also called huLAMP1; full length human LAMP1
T1 sequence: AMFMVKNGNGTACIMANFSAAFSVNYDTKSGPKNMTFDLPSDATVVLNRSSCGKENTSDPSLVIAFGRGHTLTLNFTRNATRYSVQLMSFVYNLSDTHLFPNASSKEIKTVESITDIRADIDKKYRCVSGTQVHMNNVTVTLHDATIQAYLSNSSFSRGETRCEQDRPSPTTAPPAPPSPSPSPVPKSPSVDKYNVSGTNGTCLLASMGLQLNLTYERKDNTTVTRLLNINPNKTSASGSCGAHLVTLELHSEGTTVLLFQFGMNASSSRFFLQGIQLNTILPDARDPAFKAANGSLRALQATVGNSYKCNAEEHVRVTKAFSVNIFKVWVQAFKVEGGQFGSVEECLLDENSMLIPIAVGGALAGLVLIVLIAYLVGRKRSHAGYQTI
Excerpt: (§1) LAMP1 Coding DNA Sequence, RefSeq NM_005561.3 (SEQ ID NO: 23) was cloned internally. The CDS of Macaca mulatta LAMP1, RefSeq XP_001087801 (SEQ ID NO: 27) was also cloned internally. […] Therefore the secreted LAMP1 used in the following example is referred to cynomolgus monkey. Both CDS were cloned into mammalian expression plasmids under CMV enhancer/promoter and SV40 polyA signals. HEK293 cells (Invitrogen; #K9000-10.) were transiently transfected with human LAMP1 or cynomolgus LAMP1 plasmids using FreeStyle™ MAX 293 Expression System according to the manufacturer's instructions. […] 100 μL/well of goat anti-mouse IgG conjugated with Alexa647 (Invitrogen; # A2135) was added for 45 min at 4° C. and washed three times with PBS 1% BSA. The antibody binding was evaluated after centrifugation and resuspension of cells by adding 200 μl/well PBS 1% BSA and read using Guava® easyCyte™ 8HT Flow Cytometry System. EC50 values were estimated using BIOST@T-SPEED software.

[2] = molecular target: T2, cynomolgus monkey LAMP1 at the cell surface (cynomolgus monkey, UniProt P11279 29-417 (human entry)); experiment: as above
T2 construct: also called cynoLAMP1; cynomolgus LAMP1
T2 chain: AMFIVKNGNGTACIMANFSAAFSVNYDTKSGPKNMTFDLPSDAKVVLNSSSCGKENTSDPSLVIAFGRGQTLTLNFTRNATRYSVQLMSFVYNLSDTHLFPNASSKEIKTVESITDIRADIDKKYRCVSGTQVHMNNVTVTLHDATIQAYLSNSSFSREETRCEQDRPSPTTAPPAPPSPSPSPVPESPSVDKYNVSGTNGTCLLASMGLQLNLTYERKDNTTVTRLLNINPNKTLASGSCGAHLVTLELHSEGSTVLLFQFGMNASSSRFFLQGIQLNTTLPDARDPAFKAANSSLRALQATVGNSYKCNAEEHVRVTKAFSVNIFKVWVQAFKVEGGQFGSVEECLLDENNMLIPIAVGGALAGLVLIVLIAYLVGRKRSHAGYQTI
Excerpt: as §1

hLAMP1_ΔGYQTI = molecular target: T3, hLAMP1_ΔGYQTI (human, UniProt P11279 29-412); experiment: flow cytometry, transfected 293-F cells, experiment 2
T3 construct: also called pXL5626
T3 sequence: T1 sequence with G385A, Y386A, Q387A, T388A, I389A

mLAMP1_ΔGYQTI = molecular target: T4, mLAMP1_ΔGYQTI (mouse, UniProt P11438 25-369); experiment: as above
T4 construct: on cells; also called pXL6009; murine LAMP1; not shown: murine transmembrane domain and cytoplasmic tail with GYQTI replaced by 5 Ala
T4 sequence: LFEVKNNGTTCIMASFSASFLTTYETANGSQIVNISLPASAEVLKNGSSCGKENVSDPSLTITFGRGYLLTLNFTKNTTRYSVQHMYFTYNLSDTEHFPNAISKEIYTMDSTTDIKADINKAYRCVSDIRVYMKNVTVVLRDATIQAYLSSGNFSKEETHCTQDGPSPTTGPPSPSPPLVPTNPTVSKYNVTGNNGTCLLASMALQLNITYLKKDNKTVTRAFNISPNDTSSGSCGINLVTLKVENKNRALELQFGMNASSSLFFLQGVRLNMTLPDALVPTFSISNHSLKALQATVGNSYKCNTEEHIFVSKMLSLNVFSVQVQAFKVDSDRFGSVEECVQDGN

[3] = molecular target: T1, human LAMP1 at the cell surface; experiment: flow cytometry, dissociated CR-IGR-034P colon PDX cells; CR-IGR-034P colon tumor cells
Procedure: Advanced human primary colon tumor CR-IGR-034P was obtained from Patient-derived xenograft in mice. Tumor CR-IGR-034P was enzymatically dissociated using collagenase Type IV (Invitrogen; #17104-019) and deoxyribonuclease I (Invitrogen; #18047-019) for 1 h at 4° C. Cell viability was estimated by Viacount application using Guava® easyCyte™ 8HT Flow Cytometry System. […] 100 μL/well of goat anti-mouse IgG conjugated with Alexa647 (Invitrogen; # A2135) or goat anti-human IgG conjugated with Alexa488 (Invitrogen; # A11013) was added for 45 min at 4° C. and washed three times with PBS 1% BSA. The antibody binding was evaluated after centrifugation and resuspension of cells by adding 200 μl/well PBS 1% BSA and read using Guava® easyCyte™ 8HT Flow Cytometry System. EC50 values were estimated using BIOST@T-SPEED software.

[4] = molecular target: T1, human LAMP1 at the cell surface; experiment: cell-based or functional assay

Binder	EC50 [1] [nM]	EC50 [2] [nM]	mean fluorescence (hLAMP1_ΔGYQTI)	mean fluorescence (mLAMP1_ΔGYQTI)	EC50 [3] [nM]	ADCP Mean EC50, HCT116 huLAMP1 clone 4, antigen density 20 000 [4] [nM]	ADCP Mean EC50, HCT116 huLAMP1 clone 5, antigen density 300 000 [4] [nM]	ADCP Mean EC50, HCT116 huLAMP1 clone 8, antigen density 100 000 [4] [nM]	ADCP Mean EC50, HCT116 huLAMP1 clone 12, antigen density 2500 [4] [nM]
B1	14	44	551	2	5	–	–	–	–
B2	–	–	–	–	–	0.73	0.33	0.43	0.65
